# Results reported in US9266939B2, “Compositions comprising natriuretic peptides and methods of use thereof” (Alexion Pharmaceuticals, Inc., priority 2010, dated 2016).
# Assay: In vivo pharmacokinetic study of NC2st administered IV or SC in C57BL/6 mice
# Conditions: male mice; for AUClast: 20 mg/kg single dose, serum
# Experimental: NC2st was formulated at a concentration of 5.79 mg/mL in 25 mM sodium phosphate pH 7.4, 150 mM NaCl. The animals received NC2st as a single IV or SC dose (20 mg/kg) as described in Table 3 below. Injections were scheduled between 7:00 and 10:15 AM. Each mouse was injected with test article subcutaneously into the scapular region or immobilized in a rodent restrainer and injected with the test article as an intravenous bolus via the caudal vein. […] The animals received only one dose before scheduled blood collection and sacrifice. Individual body weights were assessed before scheduled test article injection and the volume of test article administered was based on body weight determination. Blood samples (0.1 to 0.12 mL) were collected via a jugular vein under isoflurane anesthesia at different time points. At the last time point, blood samples were collected by cardiac puncture under isoflurane anesthesia. Blood samples were collected into Microvette 200Z/gel tube (Sarstedt, serum/gel clotting activator, #20.1291), incubated at room temperature for 30 to 60 minutes, and centrifuged at 10,000×g for five minutes at 2-8° C. Serum was then transferred into a fresh 0.5 mL tube (Sarstedt, #72.699), snap-frozen in liquid nitrogen, and stored at -80° C. until analysis. […] Formulated NC2st protein spiked in serum served as a standard. Pharmacokinetic profiles were derived from the concentration measured by EIA. A non-compartmental analysis (NCA) was used to calculate the pharmacokinetic parameters of testing compound. […] NCA Model 200 was selected for extravascular input or Model 201 for IV-Bolus input using sparse sampling analysis module for both models. The following non-compartmental PK parameters were calculated: • Area under the curve from time zero to the last detectable concentration (AUClast), calculated using the linear trapezoidal (linear interpolation); • Area under the curve from time zero to infinity (AUC∞) calculated [NT]λz (where λz=slope of the terminal phase of the serum concentration vs time curve); • Maximum observed serum concentration (Cmax), time of maximum serum concentration (Tmax); • Terminal elimination half-life (T1/2, calculated as 0.693/λz); • Systemic clearance (CL) was calculated as Dose/AUC∞ and • Total volume of distribution (Vss) was calculated using CL×MRT, where MRT is the mean residence time. Absolute bioavailability (F %) between routes was calculated using the following formula: [AUC∞ (sc)/Dose(sc)]/[AUC∞ (iv)/Dose(iv)]×100. Nominal times were used in the calculations and times are set relative to start of dosing. Nominal doses were used for the calculation of CL.
substance,measurement,setting,value
"NC2st: Fc-CNP fusion: Strep-tag II, TEV site, human IgG-1 Fc, 16-amino acid glycine-rich linker, CNP22; SEQ ID NO: 502",AUC∞,"IV, 20 mg/kg","28,563 hr · nmol/L"
same,CL,"IV, 20 mg/kg",0.187 mL/min/kg
same,Cmax,"IV, 20 mg/kg",2100 nM
same,Half-life,"IV, 20 mg/kg",10.6 h
same,Tmax,"IV, 20 mg/kg",1.00 h
same,Vss,"IV, 20 mg/kg",0.173 L/kg
same,AUClast,IV,"27,587 hr · nmol/L"
same,increase of SC half-life over intravenous CNP22,SC,approximately 340 fold
same,Bioavailability,"SC vs IV, 20 mg/kg",68.5%
same,AUC∞,"SC, 20 mg/kg","19,592 hr · nmol/L"
same,CL_F,"SC, 20 mg/kg",0.272 mL/min/kg
same,Cmax,"SC, 20 mg/kg",798 nM
same,Half-life,"SC, 20 mg/kg",14.3 h
same,Tmax,"SC, 20 mg/kg",6.00 h
same,Vss_F,"SC, 20 mg/kg",0.353 L/kg
same,AUClast,SC,"17,735 hr · nmol/L"
